Where a chain is given by its changes, count along the chain named. Bridges are numbered along the chain shown (N, C = ends). Where no end group is shown, it is not given here. [ ]: non-standard residue; d: D form. Dip = N[C@H](C(=O)O)C(c1ccccc1)c1ccccc1
Experiments:
[1] = molecular target: T1, meditope-enabled trastuzumab; test: SPR; earlier SPR study of paragraph 680, approximate binding constant stated in text
T1 construct: Full IgG expressed in mammalian cells; also called TM; trastuzumab memAb
T1 sequence (heavy, as listed by the source limits assumed, chain 1 of 2): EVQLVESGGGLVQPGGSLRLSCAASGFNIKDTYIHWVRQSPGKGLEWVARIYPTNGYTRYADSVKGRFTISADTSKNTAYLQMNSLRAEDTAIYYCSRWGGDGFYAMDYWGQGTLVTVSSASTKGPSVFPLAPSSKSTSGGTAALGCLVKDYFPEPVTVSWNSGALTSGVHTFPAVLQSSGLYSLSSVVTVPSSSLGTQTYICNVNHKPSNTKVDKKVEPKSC
T1 sequence (light, as listed by the source limits assumed, chain 2 of 2): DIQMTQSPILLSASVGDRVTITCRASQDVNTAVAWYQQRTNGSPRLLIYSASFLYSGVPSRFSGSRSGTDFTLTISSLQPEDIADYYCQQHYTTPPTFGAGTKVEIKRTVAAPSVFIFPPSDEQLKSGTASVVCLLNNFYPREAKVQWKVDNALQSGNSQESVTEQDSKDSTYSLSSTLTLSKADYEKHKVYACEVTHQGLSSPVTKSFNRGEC

[2] = molecular target: T2, meditope-enabled M5A (M5A 8M); test: SPR
T2 construct: Eight point mutations in the light chain; wild-type heavy chain; expressed in NS0 cells; also called meditope-enabled anti-CEA antibody
T2 sequence (light, as listed by the source, chain 1 of 2): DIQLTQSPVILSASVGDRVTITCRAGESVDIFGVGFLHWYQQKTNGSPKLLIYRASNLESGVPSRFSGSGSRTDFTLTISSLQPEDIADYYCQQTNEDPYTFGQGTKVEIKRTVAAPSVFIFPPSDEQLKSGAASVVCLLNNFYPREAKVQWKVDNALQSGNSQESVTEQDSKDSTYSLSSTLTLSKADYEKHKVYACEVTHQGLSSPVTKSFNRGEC
T2 sequence (heavy, as listed by the source, chain 2 of 2): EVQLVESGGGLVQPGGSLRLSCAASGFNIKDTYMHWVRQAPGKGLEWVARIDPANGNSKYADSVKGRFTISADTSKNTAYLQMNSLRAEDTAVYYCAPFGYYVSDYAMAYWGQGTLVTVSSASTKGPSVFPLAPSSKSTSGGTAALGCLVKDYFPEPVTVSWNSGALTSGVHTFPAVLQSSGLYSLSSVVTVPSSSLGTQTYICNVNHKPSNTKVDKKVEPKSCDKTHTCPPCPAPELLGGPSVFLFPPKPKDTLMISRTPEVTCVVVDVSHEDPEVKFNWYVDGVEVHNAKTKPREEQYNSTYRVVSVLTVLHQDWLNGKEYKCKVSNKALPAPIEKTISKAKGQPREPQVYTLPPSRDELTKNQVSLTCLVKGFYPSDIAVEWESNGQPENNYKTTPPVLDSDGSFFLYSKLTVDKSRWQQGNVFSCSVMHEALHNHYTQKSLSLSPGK

[3] = molecular target: T2, meditope-enabled M5A (M5A 8M); test: FACS, LS174T cells with 500 nM AF488 M5A 8M and 9 µM AF647-MPL, 30 min [upper right histogram]
Method: (§1) Cells were washed twice with 0.1% BSA and FACS analysis was performed.

[4] = molecular target: T3, wild-type trastuzumab; test: FACS, SKBR3 cells pre-treated with AF488 wild-type trastuzumab, then 0.1 or 1 µM AF647-MPL (L3), washed extensively
T3 construct: also called WT T
T3 sequence (heavy, as listed by the source limits assumed, chain 1 of 2, other chains not shown): as the sequence (heavy, as listed by the source limits assumed, chain 1 of 2) above, with S40A, I93V counted along it

[5] = molecular target: T4, wild-type M5A (anti-CEA antibody); test: FACS, LS174T cells with 500 nM AF488 wild-type M5A and 9 µM AF647-MPL, 30 min [upper right histogram]
T4 construct: Humanized antibody with the same backbone as trastuzumab
T4 sequence (light, as listed by the source, chain 1 of 2): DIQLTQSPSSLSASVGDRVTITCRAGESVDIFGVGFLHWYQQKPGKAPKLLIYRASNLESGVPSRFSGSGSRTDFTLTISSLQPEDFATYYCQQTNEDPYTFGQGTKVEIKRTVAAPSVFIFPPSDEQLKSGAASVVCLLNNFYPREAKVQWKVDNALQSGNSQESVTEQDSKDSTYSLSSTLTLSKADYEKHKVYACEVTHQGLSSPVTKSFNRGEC
T4 sequence (heavy, as listed by the source, chain 2 of 2): as the sequence (heavy, as listed by the source, chain 2 of 2) above
Method: as §1

[6] = molecular target: T5, HER2 on SKBR3 cells (UniProt P04626 23-1255, limits assumed); test: FACS, SKBR3 cells without antibody
T5 construct: whole, on cells; also called HER2-expressing cells (SKBR3)

[7] = molecular target: T3, wild-type trastuzumab; test: FACS, SKBR3 cells pre-bound with WT T, washed, then 0.1 or 1 µM Alexa 647-MPL-5K
[8] = molecular target: T2, meditope-enabled M5A (M5A 8M); test: SPR, kinetic fit, meditope at 10, 2, 0.4 and 0.08 uM over M5A 8M IgG immobilized at 5000 RU

B1: Protein L (single Fab binding domain) (other)
chain: EVTIKVNLIFADGKIQTAEFKGTFEEATAEAYRYAALLAKVNGEYTADLEDGGNHMNIKFAG
notes: also called Protein L (only); protein L alone
[1]
  Kd: ~500 nM

## CQYNLSSRALKC (disulfide 1-12, also called meditope 2) [cQYN meditope (cyclic CQYNLSSRALKC)]
[2]
  binding result: binds

B2: meditope 31 (AcC-QFDLSTRRLR-CGGGSK) (peptide)
peptide: Ac-CQFDLSTRRLRCGGGSK
modifications: disulfide 1-12; also: fluorescein attached in labeled form for polarization assay
[2]
  binding result: binds

B3: meditope-Protein L fusion protein (MPL), linker GGGGS (designed binder)
chain: SCQFDLSTRRLKCGGGGSEVTIKVNLIFADGKIQTAEFKGTFEEATAEAYRYAALLAKVNGEYTADLEDGGNHMNIKFAG
modifications: the two cysteines cyclized (disulfide)
notes: Labeled with AF647 in cell assays; also called MPL (L3); MPL (WT)
[3]
  binding result: binds
[4]
  binding result: no binding (tested: 1 µM)
[5]
  binding result: binds
[6]
  binding result: no binding (tested: 0.1 µM or 1 µM MPL)

B4: meditope-Protein L fusion in which all but one lysine were mutated to arginine or asparagine (MPL-5K) (designed binder)
chain: B3 chain with K12R, K23R, K32N, K39R, K58R
[7]
  binding result: no binding (tested: 1 µM)
[6]
  binding result: no binding

B5: meditope 18 (C-QFDXSTRRLK-C) (peptide)
peptide: CQFD[Dip]STRRLKC
modifications: disulfide 1-12
notes: also called CQFDA(diphenyl)STRRLKC; 5-diphenyl meditope
[8]
  Kd: 438 nM
  koff: 0.015 s⁻¹
  kon: 34300 M⁻¹ s⁻¹
